Assay results as given in patent publication US20210253715A1 (NATIONAL RESEARCH COUNCIL OF CANADA, published 2021).

B1: IGF1R3H5-IDS (uncapped) (other)
chain: EVQLVESGGGLVQPGGSLRLSCAASEYPSNFYAMSWFRQAPGKEREFVSGVSRDGLTTLYADSVKGRFTISRDNSKNTLYLQMNSLRAEDTAVYYCAIVITGVWNKVDVNSRSYHYWGQGTLVTVSSGGGGSGGGGSGGGGSGGGGSGGGGSSETQANSTTDALNVLLIIVDDLRPSLGCYGDKLVRSPNIDQLASHSLLFQNAFAQQAVCAPSRVSFLTGRRPDTTRLYDFNSYWRVHAGNFSTIPQYFKENGYVTMSVGKVFHPGISSNHTDDSPYSWSFPPYHPSSEKYENTKTCRGPDGELHANLLCPVDVLDVPEGTLPDKQSTEQAIQLLEKMKTSASPFFLAVGYHKPHIPFRYPKEFQKLYPLENITLAPDPEVPDGLPPVAYNPWMDIRQREDVQALNISVPYGPIPVDFQRKIRQSYFASVSYLDTQVGRLLSALDDLQLANSTIIAFTSDHGWALGEHGEWAKYSNFDVATHVPLIFYVPGRTASLPEAGEKLFPYLDPFDSASQLMEPGRQSMDLVELVSLFPTLAGLAGLQVPPRCPVPSFHVELCREGKNLLKHFRFRDLEEDPYLPGNPRELIAYSQYPRPSDIPQWNSDKPSLKDIKIMGYSIRTIDYRYTVWVGFNPDEFLANFSDIHAGELYFVDSDPLQDHNMYNDSQGGDLFQLLMPHHHHHHHHWSHPQFEK
modifications: phosphorylated N-glycans; Man-6-P uncapped by Jack Bean alpha-mannosidase (JBMan) treatment
notes: Single-chain fusion of a VHH with an enzyme, made in Yarrowia lipolytica; the two differ only in N-glycan uncapping; also called uncapped IGF1R3H5-IDS; P454
B2: IGF1R3H5-IDS (capped) (other)
chain: EVQLVESGGGLVQPGGSLRLSCAASEYPSNFYAMSWFRQAPGKEREFVSGVSRDGLTTLYADSVKGRFTISRDNSKNTLYLQMNSLRAEDTAVYYCAIVITGVWNKVDVNSRSYHYWGQGTLVTVSSGGGGSGGGGSGGGGSGGGGSGGGGSSETQANSTTDALNVLLIIVDDLRPSLGCYGDKLVRSPNIDQLASHSLLFQNAFAQQAVCAPSRVSFLTGRRPDTTRLYDFNSYWRVHAGNFSTIPQYFKENGYVTMSVGKVFHPGISSNHTDDSPYSWSFPPYHPSSEKYENTKTCRGPDGELHANLLCPVDVLDVPEGTLPDKQSTEQAIQLLEKMKTSASPFFLAVGYHKPHIPFRYPKEFQKLYPLENITLAPDPEVPDGLPPVAYNPWMDIRQREDVQALNISVPYGPIPVDFQRKIRQSYFASVSYLDTQVGRLLSALDDLQLANSTIIAFTSDHGWALGEHGEWAKYSNFDVATHVPLIFYVPGRTASLPEAGEKLFPYLDPFDSASQLMEPGRQSMDLVELVSLFPTLAGLAGLQVPPRCPVPSFHVELCREGKNLLKHFRFRDLEEDPYLPGNPRELIAYSQYPRPSDIPQWNSDKPSLKDIKIMGYSIRTIDYRYTVWVGFNPDEFLANFSDIHAGELYFVDSDPLQDHNMYNDSQGGDLFQLLMPHHHHHHHHWSHPQFEK
modifications: phosphorylated N-glycans; Man-6-P still capped (no uncapping)
notes: also called capped IGF1R3H5-IDS
B3: IGF1R3H5 VHH (VHH)
VHH: EVQLVESGGGLVQPGGSLRLSCAASEYPSNFYAMSWFRQAPGKEREFVSGVSRDGLTTLYADSVKGRFTISRDNSKNTLYLQMNSLRAEDTAVYYCAIVITGVWNKVDVNSRSYHYWGQGTLVTVSS
notes: also called parental VHH IGF1R3H5

Experiments:
human IGF1R [1] = molecular target: T1, human IGF1R (human, UniProt P08069 31-932, limits assumed); assay: SPR (Biacore T200), hIGF1R immobilised on CM4 chip, analyte injected at 20 nM, 25 C
T1 construct: also called hIGF1R; h-IGF1R
Description: (§1) Surface Plasmon Resonance (SPR) analysis was performed to determine the affinity of the IGF1R3H5-IDS construct towards human IGF1R (hIGR1R). The SPR analysis was performed on a Biacore T200 (GE Healthcare) under the following conditions. hIGF1R was immobilized on a CM4 chip at high density (FC1—ethanoloamine blocked; FC3—2,500 RUs of hIGF1R). A variable concentration of the flowing molecule was used, with contact and dissociations times of 300 and 400 s, respectively. The assay was performed at 25° C. with a flow rate of 40 μL/min and the chip was regenerated in 10 mM glycine (pH 5.5). […] In summary, the IGF1R3H5-IDS construct retains its ability to bind to the target receptor IGF1R.

human IGF1R [2] = molecular target: T1, human IGF1R; assay: SPR, Biacore T200, hIGF1R immobilised on CM4 chip, analyte at 50 nM (FIG. 5D); the filing calls this value inaccurate because of matrix effects; analyte at 50 nM (FIG. 5D); matrix effects, called inaccurate
Description: as §1

human IGF1R [3] = molecular target: T1, human IGF1R; assay: SPR (Biacore T200), hIGF1R immobilised on CM4 chip, analyte injected at 50 nM, 25 C; text says matrix effects lower the on-rate at this concentration
Description: as §1

human IGF1R [4] = molecular target: T1, human IGF1R; assay: SPR (Biacore T200), hIGF1R immobilised on CM4 chip, analyte injected at 2.5 nM, 25 C
Description: as §1

human IGF1R [5] = molecular target: T1, human IGF1R; assay: SPR, Biacore T200, hIGF1R immobilised on CM4 chip, analyte at 2.5 nM (FIG. 5C); analyte at 2.5 nM (FIG. 5C)
Description: as §1

human IGF1R [6] = molecular target: T1, human IGF1R; assay: SPR (Biacore T200), hIGF1R immobilised on CM4 chip, analyte injected at 50 nM, 25 C; text calls the affinity at this concentration inaccurate (matrix effects)
Description: as §1

human IGF1R [7] = molecular target: T1, human IGF1R; assay: SPR, Biacore T200, hIGF1R immobilised on CM4 chip; parental VHH, not the IDS fusion

T1 sequence (P08069 31-932 limits assumed): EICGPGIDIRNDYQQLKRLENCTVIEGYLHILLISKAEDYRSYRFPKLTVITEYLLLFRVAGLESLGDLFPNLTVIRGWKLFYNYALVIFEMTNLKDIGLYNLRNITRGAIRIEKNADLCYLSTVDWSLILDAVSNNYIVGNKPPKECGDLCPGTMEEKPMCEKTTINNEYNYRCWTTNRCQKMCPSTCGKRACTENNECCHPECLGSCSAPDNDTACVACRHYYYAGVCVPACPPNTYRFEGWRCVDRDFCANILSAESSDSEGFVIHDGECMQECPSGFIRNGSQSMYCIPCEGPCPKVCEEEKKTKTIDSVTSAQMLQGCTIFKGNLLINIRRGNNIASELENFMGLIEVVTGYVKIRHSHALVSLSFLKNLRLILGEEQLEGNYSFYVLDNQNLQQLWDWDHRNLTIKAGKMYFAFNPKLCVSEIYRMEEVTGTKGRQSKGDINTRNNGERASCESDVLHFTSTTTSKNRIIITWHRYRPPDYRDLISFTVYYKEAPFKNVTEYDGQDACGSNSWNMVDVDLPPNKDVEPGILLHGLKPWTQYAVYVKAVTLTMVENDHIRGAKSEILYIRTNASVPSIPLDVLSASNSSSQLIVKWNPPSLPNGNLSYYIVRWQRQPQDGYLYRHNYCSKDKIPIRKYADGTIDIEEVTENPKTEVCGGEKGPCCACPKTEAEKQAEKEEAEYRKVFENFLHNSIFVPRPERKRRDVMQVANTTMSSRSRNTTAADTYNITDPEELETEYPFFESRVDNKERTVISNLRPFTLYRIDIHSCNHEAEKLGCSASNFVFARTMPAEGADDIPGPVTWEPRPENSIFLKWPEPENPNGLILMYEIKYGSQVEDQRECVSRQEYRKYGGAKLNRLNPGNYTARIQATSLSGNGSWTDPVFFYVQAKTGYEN

Row | Kd (human IGF1R [1]) [nM] | koff (human IGF1R [1]) [s⁻¹] | kon (human IGF1R [1]) [M⁻¹ s⁻¹] | Kd (human IGF1R [2]) [nM] | koff (human IGF1R [3]) [s⁻¹] | kon (human IGF1R [3]) [M⁻¹ s⁻¹] | Kd (human IGF1R [4]) [nM] | koff (human IGF1R [4]) [s⁻¹] | kon (human IGF1R [4]) [M⁻¹ s⁻¹] | Kd (human IGF1R [5]) [nM] | Kd (human IGF1R [6]) [nM] | Kd (human IGF1R [7]) [nM] | koff (human IGF1R [7]) [s⁻¹] | kon (human IGF1R [7]) [M⁻¹ s⁻¹] | Binder
1 | 40.2 | 0.00289 | 71900 | – | – | – | – | – | – | – | – | – | – | – | B1
2 | 46.1 | 0.00295 | 64000 | ~70 | 0.0029 | 42000 | 7.42 | 0.00288 | 388000 | ~7 | 69.8 | – | – | – | B2
3 | – | – | – | – | – | – | – | – | – | – | – | 7.5 | 0.00251 | 334000 | B3
